The text below walks through data of PMC8409903.

The target in this test is T1, mixed lineage kinase domain-like pseudokinase (MLKL) (human (endogenous in platelets)), Q8NB16.
T1 chain: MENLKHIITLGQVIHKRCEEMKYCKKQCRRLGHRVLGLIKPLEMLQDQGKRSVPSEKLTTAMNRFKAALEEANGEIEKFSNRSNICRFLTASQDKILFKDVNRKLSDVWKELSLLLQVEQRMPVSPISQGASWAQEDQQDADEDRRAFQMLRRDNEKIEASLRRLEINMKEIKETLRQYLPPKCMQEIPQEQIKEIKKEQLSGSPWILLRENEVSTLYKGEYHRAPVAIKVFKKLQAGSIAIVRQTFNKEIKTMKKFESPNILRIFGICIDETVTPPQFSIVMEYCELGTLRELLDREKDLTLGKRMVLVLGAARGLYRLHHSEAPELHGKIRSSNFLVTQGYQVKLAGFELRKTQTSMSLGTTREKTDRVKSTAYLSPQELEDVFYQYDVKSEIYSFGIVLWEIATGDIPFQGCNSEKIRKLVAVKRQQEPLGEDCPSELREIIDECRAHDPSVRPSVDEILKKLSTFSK
The experiment in a line: western blot of platelets. The conditions noted are these: remark: other sources report otherwise. For orientation: A western blot detects proteins with antibodies after separation by electrophoresis.

B1: mixed lineage kinase domain-like pseudokinase (MLKL), Q8NB16 1-471 (natural protein)
chain: T1 chain
By stoichiometry N is commonly meant the number of molecules, sites or subunits per partner or assembly. B1: the stoichiometry N is 8.
